Source: patent EP4659810A1 (Université de Strasbourg, dated 2025)
Positions count from the first letter of the chain named.

T1: VP1 on entire replicative virions of BK virus genotype Ia (Dunlop strain; ATCC VR-837) (BK virus genotype Ia (Dunlop strain), UniProt P03088 1-362)
T1 sequence: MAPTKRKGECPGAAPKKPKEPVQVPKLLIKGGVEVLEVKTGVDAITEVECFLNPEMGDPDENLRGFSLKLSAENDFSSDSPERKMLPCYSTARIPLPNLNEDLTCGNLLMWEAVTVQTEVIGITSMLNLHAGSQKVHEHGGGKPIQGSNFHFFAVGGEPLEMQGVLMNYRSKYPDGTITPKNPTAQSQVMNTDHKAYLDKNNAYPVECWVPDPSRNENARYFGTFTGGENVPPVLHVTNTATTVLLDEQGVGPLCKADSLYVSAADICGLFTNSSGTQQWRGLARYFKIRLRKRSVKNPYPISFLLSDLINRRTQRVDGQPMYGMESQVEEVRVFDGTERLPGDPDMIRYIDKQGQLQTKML

T2: VP1 on BKV genotype II pseudovirions (GBR-12; AB263920) (BK virus genotype II (GBR-12; AB263920), UniProt P14996 1-362)
T2 chain: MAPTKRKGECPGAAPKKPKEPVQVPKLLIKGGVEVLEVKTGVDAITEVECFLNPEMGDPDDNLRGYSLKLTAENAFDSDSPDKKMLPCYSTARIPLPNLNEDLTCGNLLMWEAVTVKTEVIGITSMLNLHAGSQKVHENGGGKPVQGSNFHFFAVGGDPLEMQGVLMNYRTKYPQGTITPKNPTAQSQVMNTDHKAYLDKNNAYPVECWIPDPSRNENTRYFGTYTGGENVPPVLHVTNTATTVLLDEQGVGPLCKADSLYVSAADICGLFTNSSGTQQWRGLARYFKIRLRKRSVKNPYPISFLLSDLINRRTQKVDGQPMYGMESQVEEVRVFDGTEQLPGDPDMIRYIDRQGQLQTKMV

T3: VP1 on BKV genotype Ia pseudovirions (BK-D; JF894228) (BK virus genotype Ia (BK-D; JF894228), UniProt P03088 1-362)
T3 sequence: T1 sequence

B1: monoclonal antibody D10P4 (antibody, V domains shown)
VH: EVQLLESGGGLVQPGGSLRLSCVASGFSIRGYAMNWVRQAPGKGLEWVSSLTSNGATTYYADSVKGRFTISRDNSKNTLFLQMHSLRGEDTAVYYCAKDRDAEWLGSEPFDPWGQGTLVTVSS
VL: EIVLTQSPGTLSLSPGERATLSCRASQRVSSSYLAWYQHKFGQAPRLLIYGASRRATGIPDRFSGSGSGTDFTLTISRLEPEDFAVYYCQQYGSSPRSFGQGTKLEIK
B2: monoclonal antibody D6P7 (antibody, V domains shown)
VH: B1 VH with V23A, S28N, I29F, G31S, A33G, T52R, N54S, A56V, F80Y, H84N
VL: B1 VL with R28S, V29L, S31N, F41P, Q43L, G51D, R54S, G67E, S95P
notes: Human mAb in human-IgG (heavy, kappa) expression plasmids, made in HEK293F
B3: monoclonal antibody E3P7 (antibody, V domains shown)
VH: EVQLLESGGGLVQPGGSLRLSCAASGFSFRSYAMNWVRQAPGKGLEWVSSLNSAGVSTYYAESVKGRFTISRDNSKNTLYLQMNSLRGEDTAVYYCAKDRGVEWLGSEPIDPWGQGTLVTVSS
VL: B1 VL with S32N, F41P, G51R, R54S
B4: monoclonal antibody G5P4 (antibody, V domains shown)
VH: B1 VH with I29L, K43R, T58A, S75F, F80Y, K98R, L118M
VL: not shown
notes: as for B2

Tests used:
[1] = target: T1, VP1 on entire replicative virions of BK …; experiment: cell-based or functional assay
[2] = target: VP1 on entire replicative virions of BKV genotype II (patient's isolate) (BK virus genotype II); experiment: cell-based or functional assay
[3] = target: T4, VP1 pentamer of BKV genotype IV (BK virus genotype IV); experiment: BLI (OctetRED96e), biotinylated VP1 pentamer on streptavidin sensor, mAb 0 to 40 nM in solution
T4 construct: Obtained by gene synthesis and subcloned into pESPRIT002; also called VP1 pentamer from genotype IV

[4] = target: T2, VP1 on BKV genotype II pseudovirions …; experiment: cell-based or functional assay
[5] = target: T3, VP1 on BKV genotype Ia pseudovirions …; experiment: cell-based or functional assay

Binder | IC50, neutralization of fully replicative BKV virions (MRC5 cells) [1] [ng/mL] | IC50, neutralization of fully replicative BKV virions (MRC5 cells) [2] [ng/mL] | Kd [3] [nM] | IC50, neutralization of BKV pseudovirions (luciferase, 293TT cells) [4] [ng/mL] | IC50, neutralization of BKV pseudovirions (luciferase, 293TT cells) [5] [ng/mL]
B1 | 0.06 | 0.05 |  |  | 
B2 |  |  | 32.1 | 0.2 | 
B3 | 0.03 | 0.005 |  |  | 
B4 |  |  | 136 |  | 0.2
